Values of other authors in publication PMC8790524.
pKd: −log10 of the molar value.

Key:
[1] = biological target: IL12Rβ1 ECD (Homo sapiens) (UniProt P42701); assay: ITC
IL23R ECD (Homo sapiens) = IL23R ECD (Homo sapiens) (UniProt Q5VWK5); assay: ITC
IL23R ECD (Homo sapiens), sequence (Q5VWK5 24-355): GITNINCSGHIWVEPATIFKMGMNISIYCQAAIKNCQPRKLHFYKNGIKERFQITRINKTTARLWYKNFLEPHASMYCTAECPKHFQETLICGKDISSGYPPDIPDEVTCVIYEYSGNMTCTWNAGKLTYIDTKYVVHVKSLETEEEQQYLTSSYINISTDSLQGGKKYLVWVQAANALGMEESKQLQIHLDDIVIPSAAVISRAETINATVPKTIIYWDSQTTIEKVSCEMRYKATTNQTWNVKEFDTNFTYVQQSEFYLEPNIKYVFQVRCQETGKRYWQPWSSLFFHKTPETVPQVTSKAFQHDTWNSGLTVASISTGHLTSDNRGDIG

IL-23, sequence (Q9NPF7 20-189): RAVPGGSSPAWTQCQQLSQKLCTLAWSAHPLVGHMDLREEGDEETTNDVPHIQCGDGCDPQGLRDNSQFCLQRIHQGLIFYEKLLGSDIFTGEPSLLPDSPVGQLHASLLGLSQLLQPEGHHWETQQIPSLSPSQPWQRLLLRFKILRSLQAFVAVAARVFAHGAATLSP
IL-23, sequence (P29460 23-328, further chain): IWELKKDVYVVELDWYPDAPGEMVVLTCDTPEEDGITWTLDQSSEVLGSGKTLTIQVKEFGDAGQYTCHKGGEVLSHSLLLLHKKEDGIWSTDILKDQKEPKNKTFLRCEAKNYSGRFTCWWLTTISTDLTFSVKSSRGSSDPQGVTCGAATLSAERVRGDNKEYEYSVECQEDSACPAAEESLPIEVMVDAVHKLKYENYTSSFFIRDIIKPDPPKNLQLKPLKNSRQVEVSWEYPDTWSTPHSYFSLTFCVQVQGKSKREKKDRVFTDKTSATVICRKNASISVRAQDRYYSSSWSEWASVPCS

In the case of IL-23 (from UniProt Q9NPF7), the pKd [1] is given as 5.70 and the pKd (IL23R ECD (Homo sapiens)) is given as 7.36.
